Experimental data from PMC9832833, “Mitogen-activated protein kinase 14-mediated phosphorylation of MaMYB4 negatively regulates banana fruit ripening”.

Experiments:
MBP-MaMPK14 = molecular target: T1, MBP-MaMPK14 (Musa acuminata (banana), UniProt A0A804IKS6 1-366); assay: EMSA; MBP-MaMPK14 alone; EMSA buffer not stated (kit per cited Fan et al.); kinase preincubation in 20 mM Tris-HCl, 20 mM MgCl2, 100 mM NaCl, 10 mM ATP, 2 mM DTT, 0.5 h at 30 C; pH not; conditions: protein: recombinant; tags: MBP (N-term, pMAL-c2X); label: biotin; blunt
T1 sequence: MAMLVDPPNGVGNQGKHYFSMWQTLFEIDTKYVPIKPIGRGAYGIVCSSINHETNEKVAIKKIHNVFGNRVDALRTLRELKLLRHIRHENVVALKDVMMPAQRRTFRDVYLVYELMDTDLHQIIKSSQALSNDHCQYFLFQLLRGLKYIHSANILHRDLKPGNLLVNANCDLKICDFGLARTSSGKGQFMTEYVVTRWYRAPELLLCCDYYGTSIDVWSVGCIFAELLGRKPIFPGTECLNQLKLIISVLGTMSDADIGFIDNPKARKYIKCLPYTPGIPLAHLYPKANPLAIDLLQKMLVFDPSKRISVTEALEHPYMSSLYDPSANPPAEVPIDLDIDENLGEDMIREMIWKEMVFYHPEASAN

GST-MaMYB4 = GST-MaMYB4 (Musa acuminata (banana), UniProt A0A804HW33 1-241); assay: EMSA; without MBP-MaMPK14; EMSA buffer not stated (kit per cited Fan et al.); kinase preincubation in 20 mM Tris-HCl, 20 mM MgCl2, 100 mM NaCl, 10 mM ATP, 2 mM DTT, 0.5 h at 30 C; pH not; conditions: protein: recombinant; tags: GST (N-term, pGEX-4T-1); label: biotin; blunt
Chain of GST-MaMYB4 (A0A804HW33 entry or part of it): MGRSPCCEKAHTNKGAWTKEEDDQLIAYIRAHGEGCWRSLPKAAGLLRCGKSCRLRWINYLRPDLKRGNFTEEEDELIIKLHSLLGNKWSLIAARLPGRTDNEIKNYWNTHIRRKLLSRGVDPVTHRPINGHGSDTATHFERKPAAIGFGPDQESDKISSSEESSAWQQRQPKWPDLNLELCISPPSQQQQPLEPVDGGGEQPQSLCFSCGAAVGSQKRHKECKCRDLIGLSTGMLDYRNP

B1: MaACS1 promoter probe (dsDNA)
DNA 1: CCAAAAACAGGGTAGGTGGATGGCTTACATGCTCACCTAATAATTTATTT
DNA 2: AAATAAATTATTAGGTGAGCATGTAAGCCATCCACCTACCCTGTTTTTGG
binding result (MBP-MaMPK14): no binding
binding result (GST-MaMYB4): binds
